Our source for the antibody binding capacity (ABC), antibody binding capacity (ABC) (ABC (molecules per cell)) and nonspecific signal values is patent US20230310634A1, “ANTI-HUMAN VISTA ANTIBODIES AND USE THEREOF” (IMMUNEXT, INC., priority 2020, published 2023).

In assay [1] the target is CD163 on human cells (human) (UniProt Q86VB7). The assay can be described thus: flow cytometry with quantification beads, CD14+ monocytes in human whole blood, n=3 donors. A general note: In flow cytometry, cells or beads pass a laser one at a time.
Assay [2] has the same target. The assay can be described thus: flow cytometry with quantification beads, CD14+ monocytes of human PBMC, n=5 donors (one outlier donor).
In assay [3] the target is T1, human VISTA on cells (human) (UniProt Q9H7M9).
T1 sequence: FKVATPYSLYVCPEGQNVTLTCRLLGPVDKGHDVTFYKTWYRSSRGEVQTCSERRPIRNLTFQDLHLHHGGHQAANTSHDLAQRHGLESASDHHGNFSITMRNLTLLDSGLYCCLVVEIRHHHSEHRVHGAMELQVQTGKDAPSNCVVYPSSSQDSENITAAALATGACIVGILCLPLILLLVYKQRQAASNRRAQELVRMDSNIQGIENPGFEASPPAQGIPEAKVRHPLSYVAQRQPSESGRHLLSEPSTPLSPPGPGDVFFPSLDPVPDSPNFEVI
The assay can be described thus: flow cytometry, AF488-labelled control antibody on human monocytes, MFI normalised to INX200 at 0 min.

Sequence of CD163 on human cells (human) (Q86VB7 42-1156): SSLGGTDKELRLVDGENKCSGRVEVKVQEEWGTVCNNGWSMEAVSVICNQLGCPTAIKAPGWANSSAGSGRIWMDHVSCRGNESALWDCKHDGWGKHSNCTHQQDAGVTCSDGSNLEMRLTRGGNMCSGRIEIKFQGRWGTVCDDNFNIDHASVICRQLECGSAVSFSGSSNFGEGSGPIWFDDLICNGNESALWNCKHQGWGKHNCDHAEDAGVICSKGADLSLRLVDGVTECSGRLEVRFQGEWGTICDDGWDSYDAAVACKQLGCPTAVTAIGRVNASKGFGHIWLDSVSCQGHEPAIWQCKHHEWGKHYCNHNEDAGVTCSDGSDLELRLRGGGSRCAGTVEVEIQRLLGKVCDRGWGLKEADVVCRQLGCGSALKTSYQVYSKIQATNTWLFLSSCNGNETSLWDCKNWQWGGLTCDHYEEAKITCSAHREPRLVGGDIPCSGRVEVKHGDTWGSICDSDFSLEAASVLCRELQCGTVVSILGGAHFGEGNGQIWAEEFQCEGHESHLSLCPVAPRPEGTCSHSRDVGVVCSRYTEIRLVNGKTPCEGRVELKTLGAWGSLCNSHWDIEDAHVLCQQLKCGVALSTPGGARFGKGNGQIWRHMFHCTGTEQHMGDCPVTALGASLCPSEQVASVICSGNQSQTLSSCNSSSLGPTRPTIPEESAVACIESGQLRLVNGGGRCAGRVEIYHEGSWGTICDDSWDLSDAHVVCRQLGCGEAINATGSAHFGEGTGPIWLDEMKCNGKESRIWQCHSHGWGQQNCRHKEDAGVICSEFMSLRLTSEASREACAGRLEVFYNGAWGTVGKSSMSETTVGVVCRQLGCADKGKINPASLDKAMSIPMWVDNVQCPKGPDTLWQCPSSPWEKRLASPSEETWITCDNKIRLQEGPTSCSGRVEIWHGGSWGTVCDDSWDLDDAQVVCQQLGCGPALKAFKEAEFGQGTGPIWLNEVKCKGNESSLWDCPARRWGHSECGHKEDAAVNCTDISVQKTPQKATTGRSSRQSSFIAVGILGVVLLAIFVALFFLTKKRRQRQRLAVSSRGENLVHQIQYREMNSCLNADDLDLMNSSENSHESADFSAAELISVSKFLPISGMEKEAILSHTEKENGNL

In turn, “CD163 Alexa Fluor 647 clone GHI/61 (antibody)” gave an antibody binding capacity (ABC) in assay [1] of 13100 molecules. The antibody binding capacity (ABC) (ABC (molecules per cell)) in assay [2] amounted to 36700.

In assay [3], Human IgG1si (antibody) displayed a nonspecific signal at 0 min relative to INX200 (% of MFI) of 5.9%.
